Assay: yeast display, Sf9 membrane polyspecificity reagent, FACS + sequencing; frameworks hold sequencing errors
Summary of the method: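 Synthetic nanobody libraries on Saccharomyces cerevisiae BJ5465 were galactose-induced for 36–48 hours, stained 1 hour at 4 °C with 10% biotinylated, detergent-solubilized Sf9 membrane reagent and enriched on streptavidin microbeads. FACS then separated cells into low and high (top ~1%) gates by anti-HA (expression) and streptavidin (reagent binding) fluorescence. Genes were colony-PCR amplified, MiSeq 2 × 250 sequenced and CDR-length filtered. A clone's polyreactivity label is that of its gate of origin.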

Row | Sequence | polyreactivity (PSR sort gate)
1 | QVQLVESGGGLVQAGGSLRLSCAASGSTFSAYTMGWYRQAPGKERELVARITNGGSTYYADSVKGRFTISRDNAKNTVYLQMNSLKPEDTAVYYCAAQLGWWGSGYWGQGTQVTVSS | high polyreactivity
2 | QVQLVESGGGLVQAGGSLRLSCAASGSTFSAYTMGWYRQAPGKERELVARITNGGSTYYADSVKGRFTISRDNAKNTVYLQMNSLKPEDTAVYYCNVQYYVSYWRSYDYWGQGTQVTVSS | high polyreactivity
3 | QVQLVESGGGLVQAGGSLRLSCAASGSTFSCYAMGWYRQAPGKERELVAAISSSGGTSTYADSVKARFTISRDNAKKTVYLQMNSLKPEDTAVYYCAARQYRRLRDYRHDYWGQGTQVTVSS | high polyreactivity
4 | QVQLVESGGGLVQAGGSLRLSCAASGSTFSDNAMGWYRQAPGKDRELVAAINYSDGSTNYADSVKGRFTISRDNAKNTVYLQMNSLKPEDTAVYYCAVDIYFWCYGWWGPYDYWGQGTQVTVSS | low polyreactivity
5 | QVQLVESGGGLVQAGGSLRLSCAASGSTFSDNAMGWYRQAPGKERELVAAISVTGGRTYYADSVKGRFTISRDNAKNTVYLQMNSLKPEDTAVYYCAKVTILDPYSYDYWGQGTQVTVSS | low polyreactivity
6 | QVQLVESGGGLVQAGGSLRLSCAASGSTFSDNVMGWYRQAPGKERELVAGITRSGGRTYYADSVKGRFTISRDNAKNTVDLQMNSLKPEDTEVYYCAARRSGSKSGLFDYWGQGTQVTVSS | low polyreactivity
7 | QVQLVESGGGLVQAGGSLRLSCAASGSTFSDYAMGWYRQAPGKERELVAGITETGTTTYYADSVKGRFTISRDNAKNTVYLQMNSLKPEDTAVYYCAAYVVTYYYGTGYYSYDYWGQGTQVNVSS | low polyreactivity
8 | QVQLVESGGGLVQAGGSLRLSCAASGSTFSEYAMGCYRQAPGKERELVAAITWDGGSTYYPDSVKGRFTISRDNAKNTVYLQMNSLKPEDTAVYYCATDGWSYSYGYWGQGTQVTVSS | low polyreactivity
9 | QVQLVESGGGLVQAGGSLRLSCAASGSTFSFNAMGWYRQAPGKERELVAAISRSGGRTYYADSVKGRFTISRDNAKNTVYLQMNSLKPEDTAVYYCNKVWFQRSVQPVEYDYWGQGTQVTVSS | high polyreactivity
10 | QVQLVESGGGLVQAGGSLRLSCAASGSTFSFNAMGWYRQAPGKERELVAAISYSDSTTYYADSVKGRFTISRDNAKNTVYLQMNSLKPEDTAVYYCAAETGPYYRFGGDYWGQGTQVTVSS | high polyreactivity
11 | QVQLVESGGGLVQAGGSLRLSCAASGSTFSGNALGWYRQPPGKERELVAAITSSGGSTDYADSVKGRFTISRDNAKNSVYLQMNSLKPEDTAVYYCNTVFHYFNSGAYNFGYWGQGTQVTVSS | high polyreactivity
12 | QVQLVESGGGLVQAGGSLRLSCAASGSTFSGNAMGWYRQAPGKERELVAAITRSGSRTYYADSVKGRFTISRDNAKNTVYLQMNSLKPEDTAVYYCAKVGRTGDDYYYWGQGTQVTVAS | high polyreactivity
13 | QVQLVESGGGLVQAGGSLRLSCAASGSTFSGYAMGWYRQAPGKERELVAAINWNGGRTYYADSVKGRFTISRDNAKNTVYLQMYSLKPADTAVSYCNKQSPRGRSAVYKYDYWGQGTQVTVSS | high polyreactivity
14 | QVQLVESGGGLVQAGGSLRLSCAASGSTFSGYDMGWYRQAPGKERELVAAISKSGGRTYYADSVKGRFTISRDNAKNTVYLQMKSLKPEDTAVYYCNTDSPYDTYYFLWWREDYYWGQGTQVTVSS | low polyreactivity
15 | QVQLVESGGGLVQAGGSLRLSCAASGSTFSGYMGWYRQAPGKERELVAAITSSGGSTYYADSVKGRFTISRDNAKNTVYLQMYSLKPEDTAVYYCAADGGYRGEDYWGQGTQVTVSS | high polyreactivity
16 | QVQLVESGGGLVQAGGSLRLSCAASGSTFSHNAMGWYRQAPGKERELVAAISWSGVGTYADSVKGRFTISRDNAKNTVYLQMNSLKPEDTAVYYCNKVSYPSTSSSWFDYWGQGTQVTVSS | low polyreactivity
17 | QVQLVESGGGLVQAGGSLRLSCAASGSTFSIYAMGGDRQAPGKERELVAAITRRSGSTYYADSVKGRFTISRDNAKNTVSLQMNSLKPEDTAVYYCAADTWRTDYTSSYYKNRDSWGQGTQVTVSS | high polyreactivity
18 | QVQLVESGGGLVQAGGSLRLSCAASGSTFSIYTMGWYRQAPGKERELVAAITRGGSTYYADSVKGRFTISRDNAKNTVYLQMNSLKPEDTAVYYCAADYVSYYRGGRYIELDYWGQGTQVTVSS | low polyreactivity
19 | QVQLVESGGGLVQAGGSLRLSCAASGSTFSKYTMGWYRQAPGKERELVAAISRSGGRTYYADSVKGRFTISRDNAKNTVYLQMNSLKPEDTAVYYCATVVYVFGYSSPMYYWGQGTQVTVSS | high polyreactivity
20 | QVQLVESGGGLVQAGGSLRLSCAASGSTFSLNAMGWYRQAPGKERELVAAISGSGGSTYYADSVKGRFTISRDNAKHTVYLQMNSLKPEDTAVYYCNKYYYPLRKSFGYWGQGTQVTVSS | high polyreactivity
21 | QVQLVESGGGLVQAGGSLRLSCAASGSTFSLYAMGWYRQAPGKERELVAAISSSGGSTYYADYVKGRFTISRDNAKNTVYLQMNSLKPEDTAVYYCAAYRVGSYDYWGQGTQVTVSS | high polyreactivity
22 | QVQLVESGGGLVQAGGSLRLSCAASGSTFSLYAMGWYRQAPGKERELVAAITYSGTSTYYADSVKGRFTISRDNAKNTVYLQMNSLKPEDTAVYYCNVESWGGHDFTWAVTSGGYWGQGTQVTVSS | low polyreactivity

Row | Sequence | polyreactivity (PSR sort gate)
23 | QVQLVESGGGLVQAGGSLRLSCAASGSTFSLYAMGWYRQAPGKERELVASITWGGGSTYADSVKGRFTISRDNAKNTVYLQMNSLKPEDTAVYYCARKYRYRVLYDFAYDHWGQGTQVTVSS | low polyreactivity
24 | QVQLVESGGGLVQAGGSLRLSCAASGSTFSNVMGWYRQAPGKEREFVARISKSGGSTYYADSVKGRFTISRDNAKNSVYLQMNSLKPEDTAVYYCATGRFRRTEYGGRYDYWGQGTKVTVSS | high polyreactivity
25 | QVQLVESGGGLVQAGGSLRLSCAASGSTFSNYALGWYRPAPGKERELVAAITGRGGRTYYADSVKGRFTISRDNAKNTVYLQMNSLKPEDTAVYYCNADYWSRMDYWGQGTQVTVSS | high polyreactivity
26 | QVQLVESGGGLVQAGGSLRLSCAASGSTFSNYAMGWYRQAPGKERELVAAISRRGTSTYYADSVKGRFTISRDNAKNTVYLQMNSLKPEDTAVYYCAADYFRYTYDYWGQGTQVTVSS | high polyreactivity
27 | QVQLVESGGGLVQAGGSLRLSCAASGSTFSNYAMGWYRQAPGKERELVAVITRGASTYYADSVKGRFTISRDNAKNTVYLPMNSLKPEDTAVFYCNVPIRGQLVHTYPYDYWGQGTQVTVSS | high polyreactivity
28 | QVQLVESGGGLVQAGGSLRLSCAASGSTFSPNARGWYRQAPGKERELVAAITYRGANTYYADSVKGRFTISRDNAKNTVYLQMNSLKPEDTAVYYCAAENWIGAYYWGQGTQVTVSS | low polyreactivity
29 | QVQLVESGGGLVQAGGSLRLSCAASGSTFSPNVMGWYRQAPGKERELVAAISSSTGSTNYADSVKGRFTISRDNAKNTVYLQMNSLKPEDTAVYYCAVDPYVHWTTKLYDYWGQGTQVTVSS | low polyreactivity
30 | QVQLVESGGGLVQAGGSLRLSCAASGSTFSPYAMGWYRQAPGKERELVAAISSSGGSTYYADSVKGRFTISRDNAKNTVYLQMNSLKPEDTAVYYCRSFTSAQTLDYWGQGTQVTVSS | high polyreactivity
31 | QVQLVESGGGLVQAGGSLRLSCAASGSTFSPYAMGWYRQAPGKERELVAGITGNGGSTRYADSVKGRFTISRDNAKNTVYLQMNSLKPEDTAVYYCAARWTRQRYRTSYYSWGQGTQVTVSS | high polyreactivity
32 | QVQLVESGGGLVQAGGSLRLSCAASGSTFSQNAMGWYRQAPGKERELVAVISSSGGRTNYADSVKGRFTISRDNAKNTVYLQMNSLKPEDTSVYYCAKRLRVLYYYWGQGTQVTVSS | high polyreactivity
33 | QVQLVESGGGLVQAGGSLRLSCAASGSTFSRNAMGWYRPAPGKERELVAAISSSGGRTYYADSVKGRFTISRDNAKNTVYLQMNSLKPQDTAVYYCAADWWRVEMDYWGQGTQVTVSS | low polyreactivity
34 | QVQLVESGGGLVQAGGSLRLSCAASGSTFSRNAMGWYRQAPGKERELVATISRSGRTNYADSVKGRFTISRDNAKNTVYLQMNSLKPEDTAVYYCNAGYRRSYEYWGQGTQVTVSS | low polyreactivity
35 | QVQLVESGGGLVQAGGSLRLSCAASGSTFSRNVMGWYRQAPGKERELVAAISRGGSTNYADSVKGRFTISRENAKNTVYLQMNSLKPEDTAVYYCNAPRLGKFYYWGQGTQVTVSS | low polyreactivity
36 | QVQLVESGGGLVQAGGSLRLSCAASGSTFSRYAMGSYRQAPGKERELVAAITGTGGRTYYADSVKGRFTISRDNAKNTVYLQMNSLKPEDTAVYYCAAQRWTVKYNYWGQGTQVTVSS | high polyreactivity
37 | QVQLVESGGGLVQAGGSLRLSCAASGSTFSRYAMGWYRHAPGKERELVAAISSSGGGTYYADSVKGRFTISRDTAKNTVFFQMNSLKPEDTAVYYCAKSYRRRQGYYYWGQGTQVTVSS | high polyreactivity
38 | QVQLVESGGGLVQAGGSLRLSCAASGSTFSRYAMGWYRQAPGKERELVAAISQGGGRTYYADSVKGRFTISRDNAKNTVYLQMNSLKPEDTAVYYCAAREYYRKPYDHWGQGTQVTVSS | high polyreactivity
39 | QVQLVESGGGLVQAGGSLRLSCAASGSTFSRYAMGWYRQAPGKERELVAAISSSGGGTYYADSVKGRFTISRDNAKNTVYLQMNSLKPEDTAVYYCAAKRVHGATGYWGQGTQVTVSS | high polyreactivity
40 | QVQLVESGGGLVQAGGSLRLSCAASGSTFSRYAMRWYRQAPGKEMELVAAISSRGGSTYYADSVKGRFTISRDNAMNTVYLQMNSLKPEDTAFYYCAVKSYRLTGRGYWGQGTQVTVSS | high polyreactivity
41 | QVQLVESGGGLVQAGGSLRLSCAASGSTFSRYTMGWSRQAPGKERELVAAISYRGGSTYYADSVKGRFTISRDNAKNTVYLQMNSLKPEDTAVYYCAADAEGSASKYDYWGQGTQVTVSS | low polyreactivity
42 | QVQLVESGGGLVQAGGSLRLSCAASGSTFSRYVMGWYRQAPGKERELVAAISSTGGSTYYADSVKGRFTISRDNAKNTVYLQMNSLKPEDTAVYYCNTTYSYGVAAARYYYWGQGTQVTVSS | high polyreactivity
43 | QVQLVESGGGLVQAGGSLRLSCAASGSTFSRYVMVWYRQAPGKERELVAAISRSGSTYYADSVKGRFTISRDNAMNTVYLQMNSLKPEDTAVYYFDATGSKSAGYGYWGQGTQVTVSS | high polyreactivity

Source: the nanobody polyreactivity screen of Harvey et al. (2022)
